Where two headings read alike, the source gives them in different places.
Legend:
[1] = target: human PAPP-A(D1502A) (human, UniProt Q13219 82-1627); test: binding to alanine mutants of human PAPP-A (ELISA per paragraph 531)
Method: (§1) A, PAC1 binding to human PAPP-A/PAPP-A2 chimeras or truncated human PAPP-A variants analyzed by ELISA. Sequence derived from PAPP-A is shown by open bars, and absence of binding (−) or binding (+) is indicated. […] Samples with or without EDTA (10 mM) were injected (120 s) followed by dissociation (180 s) (solid lines). […] The absence of binding (−) or binding (+) is indicated. PAC5, which was used as a positive control, binds to an epitope of PAPP-A located N-terminal to CCP1.
(§2) Determination of antibody specificity and mapping of antibody binding—Mapping of antibody binding was carried out by ELISA using PAPP-A/PAPP-A2 chimeric proteins, and mutated variants of PAPP-A. The proteins were immobilized with polyclonal PAPP-A antibodies, and binding of phage antibodies were analyzed as detailed above.

[2] = target: human PAPP-A R1529A mutant (human, UniProt Q13219 82-1627); test: as above
Sequence of human PAPP-A R1529A mutant (Q13219 other isoform, or with tags, fused parts or gaps R1529A R1529A limits assumed): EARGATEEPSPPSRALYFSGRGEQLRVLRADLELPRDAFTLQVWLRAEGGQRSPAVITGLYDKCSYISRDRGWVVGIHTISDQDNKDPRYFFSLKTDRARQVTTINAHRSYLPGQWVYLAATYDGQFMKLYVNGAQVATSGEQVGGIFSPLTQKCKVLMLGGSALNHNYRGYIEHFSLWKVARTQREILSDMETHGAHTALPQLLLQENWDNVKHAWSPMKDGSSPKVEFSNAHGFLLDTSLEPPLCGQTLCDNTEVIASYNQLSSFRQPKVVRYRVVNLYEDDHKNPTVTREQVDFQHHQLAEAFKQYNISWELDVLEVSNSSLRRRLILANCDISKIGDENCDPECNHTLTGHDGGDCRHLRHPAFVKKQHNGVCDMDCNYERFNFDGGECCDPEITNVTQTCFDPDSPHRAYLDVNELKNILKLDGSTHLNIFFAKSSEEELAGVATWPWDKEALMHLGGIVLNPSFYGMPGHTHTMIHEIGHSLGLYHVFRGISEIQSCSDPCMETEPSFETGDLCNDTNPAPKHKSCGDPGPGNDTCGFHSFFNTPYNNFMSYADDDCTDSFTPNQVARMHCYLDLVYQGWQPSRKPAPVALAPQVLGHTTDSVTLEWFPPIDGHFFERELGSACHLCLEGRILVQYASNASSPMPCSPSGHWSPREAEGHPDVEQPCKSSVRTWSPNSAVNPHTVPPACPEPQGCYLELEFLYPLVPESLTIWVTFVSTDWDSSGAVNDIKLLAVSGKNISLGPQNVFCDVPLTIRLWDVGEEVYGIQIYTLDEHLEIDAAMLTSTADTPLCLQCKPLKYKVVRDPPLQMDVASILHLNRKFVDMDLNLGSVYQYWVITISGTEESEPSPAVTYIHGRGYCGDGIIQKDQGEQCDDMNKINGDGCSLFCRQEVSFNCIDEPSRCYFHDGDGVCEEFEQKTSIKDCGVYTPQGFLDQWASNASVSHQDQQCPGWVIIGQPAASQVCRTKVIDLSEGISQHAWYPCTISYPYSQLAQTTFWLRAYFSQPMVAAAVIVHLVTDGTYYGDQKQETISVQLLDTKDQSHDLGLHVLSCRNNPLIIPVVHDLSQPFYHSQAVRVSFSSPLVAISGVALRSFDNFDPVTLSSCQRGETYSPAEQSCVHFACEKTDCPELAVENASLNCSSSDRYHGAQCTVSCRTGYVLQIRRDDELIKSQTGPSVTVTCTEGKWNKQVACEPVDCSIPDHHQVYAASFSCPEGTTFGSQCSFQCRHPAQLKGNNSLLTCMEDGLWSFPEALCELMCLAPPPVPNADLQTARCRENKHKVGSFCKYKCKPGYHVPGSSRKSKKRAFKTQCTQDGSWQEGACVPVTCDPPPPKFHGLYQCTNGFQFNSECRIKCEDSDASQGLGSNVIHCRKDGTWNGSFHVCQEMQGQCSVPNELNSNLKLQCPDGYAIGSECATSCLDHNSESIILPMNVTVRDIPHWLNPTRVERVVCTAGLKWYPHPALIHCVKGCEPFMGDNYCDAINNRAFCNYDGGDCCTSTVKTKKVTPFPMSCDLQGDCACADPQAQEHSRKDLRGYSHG
Method: as §1, §2

[3] = target: human PAPP-A(D1484A) (human, UniProt Q13219 82-1627); test: as above
Sequence of human PAPP-A(D1484A) (Q13219 other isoform, or with tags, fused parts or gaps D1484A D1484A limits assumed): as the sequence (Q13219 other isoform, or with tags, fused parts or gaps R1529A R1529A limits assumed) above, with D1484A, A1529R counted along it
Method: as §1, §2

[4] = target: human PAPP-A(D1499A) (human, UniProt Q13219 82-1627); test: as above
Sequence of human PAPP-A(D1499A) (Q13219 other isoform, or with tags, fused parts or gaps D1499A D1499A limits assumed): as the sequence (Q13219 other isoform, or with tags, fused parts or gaps R1529A R1529A limits assumed) above, with D1499A, A1529R counted along it
Method: as §1, §2

[5] = target: human PAPP-A D1530A mutant (human, UniProt Q13219 82-1627); test: as above
Sequence of human PAPP-A D1530A mutant (Q13219 other isoform, or with tags, fused parts or gaps D1530A D1530A limits assumed): as the sequence (Q13219 other isoform, or with tags, fused parts or gaps R1529A R1529A limits assumed) above, with A1529R, D1530A counted along it
Method: as §1, §2

[6] = target: T1, human pregnancy-associated plasma protein-A (PAPP-A) (human, UniProt Q13219 82-1627); test: inhibition of IGFBP-4 (10 nM) cleavage by human PAPP-A (0.1 nM), relative initial velocities against PAC1 concentration, competitive inhibition assumed; IGFBP-4 cleavage assay, competitive inhibition assumed
T1 construct: Recombinant, from 293T cells; also called human PAPP-A; full-length PAPP-A
T1 sequence (Q13219 other isoform, or with tags, fused parts or gaps limits assumed): as the sequence (Q13219 other isoform, or with tags, fused parts or gaps R1529A R1529A limits assumed) above, with A1529R counted along it
Method: A) Cleavage of IGFBP-4 (10 nM) by human PAPP-A (0.1 nM) in the presence of PAC1 (1.5 μM). The cleavage reaction was incubated (37° C.), and samples were taken out at intervals from 0 to 60 min, as indicated above each lane. The cleavage was visualized by SDS-PAGE followed by autoradiography. At 60 min, a faint band is visible at the position of the cleavage products (c). B) Cleavage of IGFBP-4 (10 nM) by murine PAPP-A (0.1 nM) for 1 h at 37° C. in the presence of 0-750 nM PAC1, as indicated above each lane. C) Cleavage of IGFBP-4 (10 nM) by PAPP-A (0.1 nM) was analyzed at different concentrations of PAC1. Relative initial velocities, determined independently, are plotted as a function of PAC1 concentration. All concentrations were determined by amino acid analysis (IGFBP-4 and PAC1) or ELISA (PAPP-A). Assuming competitive inhibition, an inhibitory constant was calculated (Kᵢ=1.2 nM±0.1). […]
Measurement of proteolytic activity—Proteolytic activity of PAPP-A against IGFBP-4 and -5 was analyzed as previously described in detail (45). In brief, purified substrates, quantified by amino acid analysis, were labelled with ¹²⁵I (Amersham Biosciences). […] The degree of cleavage was determined by quantification of band intensities using a Typhoon imaging system (GE Healthcare), and background levels (mock signals) were subtracted. […]

[7] = target: T1, human pregnancy-associated plasma …; test: cell-based or functional assay
[8] = target: T2, human PAPP-A(E483Q) (human, UniProt Q13219 82-1627); test: SPR (BIAcore T100), PAPP-A immobilized on CM5 chip, PAC1 0.35-11 nM injected at 37 C, 1:1 model, global fit; SPR, 37 C, PAPP-A on the chip
T2 construct: Active-site mutant; also called immobilized PAPP-A (SPR)
T2 sequence (Q13219 other isoform, or with tags, fused parts or gaps E483Q E483Q limits assumed): as the sequence (Q13219 other isoform, or with tags, fused parts or gaps R1529A R1529A limits assumed) above, with E483Q, A1529R counted along it
Method: A) Cleavage of IGFBP-4 (10 nM) by human PAPP-A (0.1 nM) in the presence of PAC1 (1.5 μM). The cleavage reaction was incubated (37° C.), and samples were taken out at intervals from 0 to 60 min, as indicated above each lane. The cleavage was visualized by SDS-PAGE followed by autoradiography. At 60 min, a faint band is visible at the position of the cleavage products (c). B) Cleavage of IGFBP-4 (10 nM) by murine PAPP-A (0.1 nM) for 1 h at 37° C. in the presence of 0-750 nM PAC1, as indicated above each lane. C) Cleavage of IGFBP-4 (10 nM) by PAPP-A (0.1 nM) was analyzed at different concentrations of PAC1. Relative initial velocities, determined independently, are plotted as a function of PAC1 concentration. All concentrations were determined by amino acid analysis (IGFBP-4 and PAC1) or ELISA (PAPP-A). Assuming competitive inhibition, an inhibitory constant was calculated (Kᵢ=1.2 nM±0.1). D) Sensorgrams showing binding of PAC1 to immobilized human PAPP-A. Purified PAC1 (0.35, 0.7, 1.4, 2.8, 5.5, and 11 nM) was injected onto the chip at 37° C. for 120 s followed by dissociation for 300 s.
(§3) Surface plasmon resonance analysis—Surface plasmon resonance experiments were carried out on a BIAcore T100 instrument (BIAcore AB, Uppsala, Sweden) using series S CM5 sensor chips and coupling reagents supplied by the manufacturer. Affinity purified PAPP-A(E483Q), 10 μg/mL in 10 mM sodium acetate, pH 5.0, was immobilized (at a level of 500 resonance units (RU)) to the activated chip at 25° C. Remaining activated groups were blocked by 1M ethanolamine. Purified antibodies (0.35-11 nM) diluted in 10 mM HEPES, 150 mM NaCl, 1 mM CaCl₂, 0.05% Tween-20, pH 7.4 (HBS), were injected over the sensor chip for 2 min at a flow rate of 30 μL/min at 37° C. Recorded signals were subtracted the background signal, determined by the injection of an irrelevant antibody. […] Data were analyzed using the software of the manufacturer (BIAcore T100 evaluation Software version 1.1).

[9] = target: T1, human pregnancy-associated plasma …; test: cell-based or functional assay; remark: listed apart in the source
[10] = target: human PAPP-A K1509A mutant (human, UniProt Q13219 82-1627); test: binding to alanine mutants of human PAPP-A (ELISA per paragraph 531)
Sequence of human PAPP-A K1509A mutant (Q13219 other isoform, or with tags, fused parts or gaps K1509A K1509A limits assumed): as the sequence (Q13219 other isoform, or with tags, fused parts or gaps R1529A R1529A limits assumed) above, with K1509A, A1529R counted along it
Method: as §1, §2

[11] = target: human PAPP-A E1535A mutant (human, UniProt Q13219 82-1627); test: as above
Sequence of human PAPP-A E1535A mutant (Q13219 other isoform, or with tags, fused parts or gaps E1535A E1535A limits assumed): as the sequence (Q13219 other isoform, or with tags, fused parts or gaps R1529A R1529A limits assumed) above, with A1529R, E1535A counted along it
Method: as §1, §2

[12] = target: human PAPP-A D1525A mutant (human, UniProt Q13219 82-1627); test: as above
Sequence of human PAPP-A D1525A mutant (Q13219 other isoform, or with tags, fused parts or gaps D1525A D1525A limits assumed): as the sequence (Q13219 other isoform, or with tags, fused parts or gaps R1529A R1529A limits assumed) above, with D1525A, A1529R counted along it
Method: as §1, §2

[13] = target: T2, human PAPP-A(E483Q); test: SPR, calcium ion dependence of binding to immobilized PAPP-A
Method: as §3
However, the binding was only disturbed when PAC1 was injected with EDTA onto a chip equilibrated with the calcium ion containing buffer (FIG. 8B). Following EDTA treatment, equilibration of the flow cell using calcium ion containing buffer restored its ability to bind PAC1 (FIG. 8B). […] Similar results were obtained with PAC2 (not shown).

Sequence of human PAPP-A(D1502A) (Q13219 other isoform, or with tags, fused parts or gaps D1502A D1502A limits assumed): as the sequence (Q13219 other isoform, or with tags, fused parts or gaps R1529A R1529A limits assumed) above, with D1502A, A1529R counted along it

Row | Binder | binding result [1] | binding result [2] | binding result [3] | binding result [4] | binding result [5] | Ki [6] [nM] | IC50 (read off the curve) [7] [nM] | Kd [8] [nM] | koff [8] [s⁻¹] | kon [8] [M⁻¹ s⁻¹] | IC50 (read off the curve) [9] [nM] | binding result [10] | binding result [11] | binding result [12] | binding result [13]
1 | PAC1 (PAPP-A exosite antibody, scFv) (scFv, Selected from the Tomlinson I+J phage libraries and produced in E. coli HB2151; Purified scFv was used in SPR and cleavage assays; also called scFv PAC1; antibody PAC1) scFv: EVQLLESGGGLVQPGGSLRLSCAASGFTFSSYAMSWVRQAPGKGLEWVSVITDMGRTTRYADSVKGRFTISRDNSKNTLYLQMNSLRAEDTAVYYCAKGLRQFDYWGQGTLVTVSSGGGGSGGGGSGGGGSTDIQMTQSPSSLSASVGDRVTITCRASQSISSYLNWYQQKPGKAPKLLIYHASQLQSGVPSRFSGSGSGTDFTLTISSLQPEDFATYYCQQYGGNPTTFGQGTKVEIKRAAAHHHHHHGAAEQKLISEEDLNGAA | no binding | no binding | no binding | no binding | no binding | 1.2 | ~2 | 0.25 | 0.00109 | 4.36e+06 | ~1 |  |  |  | 
2 | PAC2 (PAPP-A exosite antibody, scFv) (scFv, Selected from the Tomlinson I+J phage libraries; also called scFv PAC2) scFv: EVQLLESGGGLVQPGGSLRLSCAASGFTFSSYAMSWVRQAPGKGLEWVSSIQADGTRTGYADSVKGRFTISRDNSKNTLYLQMNSLRAEDTAVYYCAKQRGIFDYWGQGTLVTVSSGGGGSGGGGSGGGGSTDIQMTQSPSSLSASVGDRVTITCRASQSISSYLNWYQQKPGKAPKLLIYRASGLQSGVPSRFSGSGSGTDFTLTISSLQPEDFATYYCQQSHHYPSTFGQGTKVEIKRAAAHHHHHHGAAEQKLISEEDLNGAA | no binding | no binding | no binding | no binding | no binding |  |  |  |  |  |  | binds | binds | binds | binds
